In patent publication US20220363757A1 (SYMPHOGEN A S, published 2022):

T1: human LAG-3 domain 1-2 Fc fusion, point mutation #72 S133A (human, UniProt P18627 23-266)
T1 construct: not shown: human IgG1 Fc, AA P101-K330
T1 sequence: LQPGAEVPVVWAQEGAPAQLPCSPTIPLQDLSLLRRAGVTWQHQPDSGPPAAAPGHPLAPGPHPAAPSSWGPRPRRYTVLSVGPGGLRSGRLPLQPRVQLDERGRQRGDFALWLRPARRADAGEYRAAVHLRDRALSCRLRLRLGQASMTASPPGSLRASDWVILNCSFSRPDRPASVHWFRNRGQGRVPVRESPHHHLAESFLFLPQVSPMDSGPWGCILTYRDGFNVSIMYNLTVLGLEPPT

T2: human LAG-3 domain 1-2 Fc fusion, point mutation #65 R125A (human, UniProt P18627 23-266)
T2 construct: not shown: human IgG1 Fc, AA P101-K330
T2 sequence: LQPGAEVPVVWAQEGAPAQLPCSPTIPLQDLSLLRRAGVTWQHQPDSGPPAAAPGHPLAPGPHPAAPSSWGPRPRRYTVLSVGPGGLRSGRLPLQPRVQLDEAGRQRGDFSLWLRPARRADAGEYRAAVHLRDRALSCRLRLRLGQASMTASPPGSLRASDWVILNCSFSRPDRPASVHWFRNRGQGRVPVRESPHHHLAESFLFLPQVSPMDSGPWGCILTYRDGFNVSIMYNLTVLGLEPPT

T3: human LAG-3 domain 1-2 Fc fusion, point mutation #42 R95A (human, UniProt P18627 23-266)
T3 construct: not shown: human IgG1 Fc, AA P101-K330
T3 sequence: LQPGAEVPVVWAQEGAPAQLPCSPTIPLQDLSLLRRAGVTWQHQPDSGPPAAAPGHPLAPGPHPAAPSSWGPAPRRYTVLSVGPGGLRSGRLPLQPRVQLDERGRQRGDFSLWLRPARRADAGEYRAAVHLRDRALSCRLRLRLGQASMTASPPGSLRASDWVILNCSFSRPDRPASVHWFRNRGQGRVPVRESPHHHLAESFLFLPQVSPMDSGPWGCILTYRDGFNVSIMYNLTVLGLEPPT

T4: human LAG-3 domain 1-2 Fc fusion, point mutation #40 G93A (human, UniProt P18627 23-266)
T4 construct: not shown: human IgG1 Fc, AA P101-K330
T4 sequence: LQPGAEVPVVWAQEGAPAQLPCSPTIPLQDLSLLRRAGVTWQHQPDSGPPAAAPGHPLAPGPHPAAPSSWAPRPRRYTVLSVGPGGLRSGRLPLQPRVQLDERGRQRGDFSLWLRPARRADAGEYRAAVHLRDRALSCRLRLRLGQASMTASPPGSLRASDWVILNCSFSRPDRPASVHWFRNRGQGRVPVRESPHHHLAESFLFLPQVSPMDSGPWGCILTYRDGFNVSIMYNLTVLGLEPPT

T5: human LAG-3 domain 1-2 Fc fusion, point mutation #16 H65A (human, UniProt P18627 23-266)
T5 construct: not shown: human IgG1 Fc, AA P101-K330
T5 sequence: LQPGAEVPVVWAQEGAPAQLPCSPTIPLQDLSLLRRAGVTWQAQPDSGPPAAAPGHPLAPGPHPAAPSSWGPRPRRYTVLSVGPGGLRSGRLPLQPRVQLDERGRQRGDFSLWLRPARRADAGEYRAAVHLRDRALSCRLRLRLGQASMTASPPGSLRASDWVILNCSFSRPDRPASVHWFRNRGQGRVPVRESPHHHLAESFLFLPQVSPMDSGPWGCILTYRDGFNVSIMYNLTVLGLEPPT

T6: human LAG-3 domain 1-2 Fc fusion, point mutation #55 S111A (human, UniProt P18627 23-266)
T6 construct: not shown: human IgG1 Fc, AA P101-K330
T6 sequence: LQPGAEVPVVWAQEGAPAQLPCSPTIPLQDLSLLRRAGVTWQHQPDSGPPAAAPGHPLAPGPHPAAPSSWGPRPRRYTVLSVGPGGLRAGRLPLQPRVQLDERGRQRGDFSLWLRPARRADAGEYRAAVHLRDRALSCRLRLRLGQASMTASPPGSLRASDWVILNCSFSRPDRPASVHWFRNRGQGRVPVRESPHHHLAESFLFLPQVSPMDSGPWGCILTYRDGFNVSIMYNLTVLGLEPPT

T7: human LAG-3 domain 1-2 Fc fusion, point mutation #53 L109A (human, UniProt P18627 23-266)
T7 construct: not shown: human IgG1 Fc, AA P101-K330
T7 sequence: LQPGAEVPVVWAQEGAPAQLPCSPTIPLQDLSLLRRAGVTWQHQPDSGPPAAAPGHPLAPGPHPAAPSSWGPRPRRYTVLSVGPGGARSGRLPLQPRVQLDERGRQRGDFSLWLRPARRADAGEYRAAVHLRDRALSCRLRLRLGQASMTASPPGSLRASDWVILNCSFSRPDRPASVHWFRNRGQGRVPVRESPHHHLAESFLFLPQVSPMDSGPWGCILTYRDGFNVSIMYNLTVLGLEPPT

T8: human LAG-3 domain 1-2 Fc fusion, point mutation #68 Q128A (human, UniProt P18627 23-266)
T8 construct: not shown: human IgG1 Fc, AA P101-K330
T8 sequence: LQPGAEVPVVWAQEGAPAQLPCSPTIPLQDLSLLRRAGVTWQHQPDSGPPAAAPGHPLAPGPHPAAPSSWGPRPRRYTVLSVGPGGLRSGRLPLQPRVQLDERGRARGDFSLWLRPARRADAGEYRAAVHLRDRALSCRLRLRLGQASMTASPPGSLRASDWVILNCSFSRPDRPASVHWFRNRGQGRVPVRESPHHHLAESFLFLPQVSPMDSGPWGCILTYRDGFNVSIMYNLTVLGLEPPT

T9: human LAG-3 domain 1-2 Fc fusion, point mutation #8 Q51A (human, UniProt P18627 23-266)
T9 construct: not shown: human IgG1 Fc, AA P101-K330
T9 sequence: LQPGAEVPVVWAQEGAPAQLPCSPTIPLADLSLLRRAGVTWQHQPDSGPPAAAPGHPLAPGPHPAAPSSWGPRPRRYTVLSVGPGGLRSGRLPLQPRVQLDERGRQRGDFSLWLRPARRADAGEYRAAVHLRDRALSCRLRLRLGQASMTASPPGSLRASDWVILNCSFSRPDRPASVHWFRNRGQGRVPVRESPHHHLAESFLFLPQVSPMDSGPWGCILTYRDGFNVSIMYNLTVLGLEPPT


Key:
Assay in all cases: SPR, Fab over captured mutant LAG-3-Fc;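 also: fc fusion variants captured on anti-human IgG Fc sensor, Fab injected with association then dissociation phases, KD obtained from Langmuir one-to-one fit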
[1] = target: T1, human LAG-3 domain 1-2 Fc fusion, point …
Description: (§1) The LAG-3 fusion proteins were immobilized onto a G-a-hu-IgG Fc SensEye® (Ssens BV, The Netherlands) for 15 minutes using a Continuous Flow Microspotter (CFM, Wasatch Microfluidics, Salt Lake City, US). After spotting, the SensEye® was positioned in an IBIS MX96 biosensor and captured proteins were evaluated for binding affinity. […] Fab association was performed for 15 minutes and antigen dissociation was performed for 15 minutes. The recorded binding responses were fitted to a simple Langmuir 1:1 binding model with Scrubber 2 software for calculation of the on-rate (kon or ka), off-rate (koff or kd) and affinity (KD) constants.

[2] = target: T2, human LAG-3 domain 1-2 Fc fusion, point …
Description: as §1

[3] = target: T3, human LAG-3 domain 1-2 Fc fusion, point …
Description: as §1

[4] = target: T4, human LAG-3 domain 1-2 Fc fusion, point …
Description: as §1

[5] = target: T5, human LAG-3 domain 1-2 Fc fusion, point …
Description: as §1

[6] = target: T6, human LAG-3 domain 1-2 Fc fusion, point …
Description: as §1

[7] = target: T7, human LAG-3 domain 1-2 Fc fusion, point …
Description: as §1

[8] = target: T8, human LAG-3 domain 1-2 Fc fusion, point …
Description: as §1

[9] = target: T9, human LAG-3 domain 1-2 Fc fusion, point …
Description: as §1

Binder | KD mutant/KD wild type [1] | KD mutant/KD wild type [2] | KD mutant/KD wild type [3] | KD mutant/KD wild type [4] | KD mutant/KD wild type [5] | KD mutant/KD wild type [6] | KD mutant/KD wild type [7] | KD mutant/KD wild type [8] | KD mutant/KD wild type [9] | binding result [1] | binding result [5]
Fab fragment of antibody 15532 (Fab, V domains shown, not shown: a dimerising Fc or GST, monomeric Fab made by GingisKHAN digestion of the IgG1) VH: QVQLQQWGAGLLRPSETLSLTCAVYGESFSGYYWNWIRQPPGKGLEWIGEINHSGSTNYNPSLKSRVTISVDTSKTQFSLKLSSVTAADTAVYYCARGWDLLDWNDYWNEYWGQGTLVTVSS VL: EIVLTQSPATLSLSPGERATLSCRASQSVSSYLAWYQQKPGQAPRLLIYDASNRATGIPARFSGSGSGTDFTLTISSLEPEDFAVYYCQQRSNWPLTFGGGTKVEIKR | 2.2 fold | 0.9 fold | 3.7 fold | 7.1 fold | 3.8 fold | 1 fold | 1.1 fold | 0.7 fold | 0.9 fold |  | 
Fab fragment of antibody 15431 (Fab, V domains shown, not shown: a dimerising Fc or GST, monomeric Fab made by GingisKHAN digestion of the IgG1) VH: QVQLQQSGPGLVKPSQTLSLTCAISGDSVSSNSAAWNWIRQSPSRGLEWLGRTYYRSKWYNDYAVSVKSRITINPDTSKNQFSLQLNSVTPEDTAVYYCARDDDWNDFDYWGQGTLVTVSS VL: EIVLTQSPATLSLSPGERATLSCRASQSVSSYLAWYQQKPGQAPRLLIYDASNRATGIPARFSGSGSGTDFTLTISSLEPEDFAVYYCQQRSNWPLTFGGGTKVEIKR |  | 1.1 fold | 1.9 fold | 11.6 fold |  | 0.8 fold | 1 fold | 0.8 fold | 0.7 fold | no binding (tested: 300 nM) | no binding (tested: 300 nM)
Fab fragment of antibody 15572 (Fab, V domains shown, not shown: a dimerising Fc or GST, monomeric Fab made by GingisKHAN digestion of the IgG1) VH: QLQLQESGPGLVKPSETLSLTCTVSGDSISSSSYYWGWIRQPPGKGLEWIGSIFYSGNTYYNPSLKSRVTISVDTSKNQFSLKLSSVTAADTAVYYCAREDDFLTDYYGAFDIWGQGTMVTVSS VL: not shown |  | 1.1 fold | 0.6 fold | 0.8 fold |  | 0.7 fold | 1 fold | 0.9 fold | 0.6 fold | no binding (tested: 300 nM) | no binding (tested: 300 nM)
Fab fragment of antibody 15011 (Fab, V domains shown, not shown: a dimerising Fc or GST, monomeric Fab made by GingisKHAN digestion of the IgG1) VH: EVQLLESGGGLVQPGGSLRLSCAASGFDFRSYAMMWVRQAPGKGLEWVGGINGEVGGSNTYYAPAVKGRATISRDNSKNTLYLQMNSLRAEDTAVYYCVKGAGACGICNDDIDAWGQGTLVTVSS VL: SYELTQDPAVSVALGQTVRITCSGAGSYAGSYYYGWHQQKPGQAPVTVIYDNDKRPSNIPDRFSGSSSGNTASLTITGAQAEDEADYYCGSTNDNDDGGLFGSGTKVTVLG | 0.6 fold | 1.1 fold | 0.7 fold | 1 fold | 0.5 fold | 53.4 fold | 84.2 fold | 1 fold | 0.8 fold |  | 
